Source: article PMC2911661

Target: SH2 domain of SHC1 (human) (UniProt P29353)
Assay: peptide or protein array

UniProt P29353, sequence (P29353 488-579): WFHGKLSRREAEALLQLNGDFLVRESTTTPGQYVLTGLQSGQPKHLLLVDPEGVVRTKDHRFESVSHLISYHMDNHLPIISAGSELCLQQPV

Kd: < 200 nM
Substance: singly phosphorylated Tarp D peptide (18 amino acids around the ENIYE motif)
